Experimental data as given in paper PMC2987766.

Key:
[1] = target: Recombinant perlecan domain I (PlnDI), undigested (UniProt Q05793); experiment: far-Western, overlay or dot blot; solution phase, pH 7.0: PlnDI (5 ug), untreated or pre-digested with heparinase cocktail and/or chondroitinase ABC, pre-incubated with 20 ng VEGF165 for 1 hr at room temperature (25 mM HEPES), then blotted onto nitrocellulose; bound VEGF165 detected with anti-VEGF165 antibodies; background subtracted
[2] = target: PlnDI pre-digested with a heparinase cocktail (heparinases I, II and III); experiment: far-Western, overlay or dot blot; solid phase: PlnDI, undigested or pre-digested with heparinase cocktail +/- chondroitinase ABC, immobilised on nitrocellulose and incubated with VEGF165; bound VEGF165 detected with VEGF monoclonal antibodies, densitometry; heparin 0.25 ug/ml for competitive inhibition
[3] = target: Recombinant perlecan domain I (PlnDI), undigested (UniProt Q05793); experiment: as above
[4] = target: Recombinant perlecan domain I (PlnDI), undigested (UniProt Q05793); experiment: far-Western, overlay or dot blot; solution phase, pH 6.0: PlnDI (5 ug) pre-incubated with 20 ng VEGF165 for 1 hr at room temperature (25 mM HEPES), then blotted onto nitrocellulose; bound VEGF165 detected with anti-VEGF165 antibodies; background subtracted

percent reduction of binding against pH 8.0 [1]: 50%
percent reduction of binding against undigested PlnDI [2]: 75%
percent of binding prevented by heparin 0.25 ug/ml [3]: 80%
percent reduction of binding against pH 8.0 [4]: 80%
Substance: Recombinant human vascular endothelial growth factor-165 (ligand)
